Experimental data reported in patent US20120231006A1 (Amgen, published 2012).
Numbering of substitutions follows the chain as printed.

B1: mAb 2D2.1 (antibody, human IgG2, lambda, V domains shown)
VH: QVQLQQWGAGLLKPSETLSLTCAVYGGSFSGYYWSWIRQPPGKGLEWIGEIDHSGRINYNPALKSRLTISVDTSKNQFSLKLSSVTAADTAVYYCARAGSGGYEDWFDPWGQGTLVTVSS
VL: QSVLTQPPSVSGAPGQRVTISCTGSSSNIGAGYNVHWYQQFPRTDPKLLIYVYNIRPSGVPDRFSGSRSGTSASLAITGLQTEDEADYYCQSYDSSLSGVVFGGGTKLTVLG
notes: fully human IgG2 lambda, Campaign 1; also called mAb 2D.1
B2: mAb 2B7.1 (antibody, human IgG2, V domains shown)
VH: B1 VH with R56S, I57T
VL: B1 VL with A31T
notes: fully human, Campaign 1
B3: mAb 2C1.1 (antibody, human IgG2, lambda, V domains shown)
VH: B1 VH with R56S, I57T
VL: B1 VL
notes: fully human IgG2 lambda, Campaign 1; tested hybridoma-purified and recombinant; also called anti-hOrai1 mAb 2C1.1

These binders were tested against T1, hOrai1-mOrai1 ECL2 chimeric protein (human/mouse chimera, UniProt Q96D31 1-301) (assay: FACS, 293EBNA).
T1 construct: human Orai1 with mouse ECL2; also called Ch
T1 sequence (Q96D31 other isoform, or with tags, fused parts or gaps mutant): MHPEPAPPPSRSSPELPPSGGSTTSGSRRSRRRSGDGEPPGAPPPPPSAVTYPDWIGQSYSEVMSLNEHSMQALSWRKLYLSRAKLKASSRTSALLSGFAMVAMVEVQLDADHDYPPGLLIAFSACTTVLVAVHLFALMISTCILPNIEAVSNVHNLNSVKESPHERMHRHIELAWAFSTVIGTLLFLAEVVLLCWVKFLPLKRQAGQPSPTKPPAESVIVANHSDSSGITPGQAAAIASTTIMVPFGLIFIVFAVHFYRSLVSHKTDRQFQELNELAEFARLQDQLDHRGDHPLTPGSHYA
Design: concentration or dose not given beside the values
From the text: (§1) FIG. 16A-D illustrates the results of FACS analysis showing binding to the indicated mOrai1-hOrai1 ECL2 chimeric mutants expressed on the surface of HEK-293-EBNA cells. Transfected cells were stained first with recombinant monoclonal antibodies then counter-stained with a secondary phycoerythrin-labeled goat (“Gt”) anti-human (“Hu”) IgG F(ab′)₂ antibody fragment and visualized using FACS. In FIG. 16B and FIG. 16D, The values of Relative Fluorescence Intensity as Percent of Control (RFI-POC) are calculated from the relative fluorescence intensity geometric mean (Geo Mean). The geometric mean is an average calculated by multiplying a series of numbers and taking the nth root where n is the number of numbers in the series. It is a statistical average of a set of transformed numbers often used to represent a central tendency in a highly variable data set that minimizes the effects of extreme values.
(§2) Table 11A and Table 11B feature a schematic representation of the POC data from FIG. 16B and FIG. 16D, respectively, where the binding results are recorded as (+++) denoting binding POC from 40% to 100%, (++) for POC of 5% to less than 40%, (+) for POC from 1% to less than 5% and (−) as lack of binding with POC less than 1%.

| Binder | POC (percent of control, FACS Geo Mean relative to Ch. 1) [%] | POC (percent of control, FACS Geo Mean relative to binding to Ch. 1) [%] |
| --- | --- | --- |
| B1 | < 1 | < 1 |
| B2 | < 1 | – |
| B3 | < 1 | – |

What follows are binders tested against T2, mOrai1-hOrai1 ECL2 (…) protein (human/mouse chimera, UniProt Q8BWG9 1-304 (mouse entry)) (assay: FACS, 293EBNA).
T2 construct: also called Ch
Design: concentration or dose not given beside the values
From the text: as §1, §2
T2 sequence (Q8BWG9 other isoform, or with tags, fused parts or gaps): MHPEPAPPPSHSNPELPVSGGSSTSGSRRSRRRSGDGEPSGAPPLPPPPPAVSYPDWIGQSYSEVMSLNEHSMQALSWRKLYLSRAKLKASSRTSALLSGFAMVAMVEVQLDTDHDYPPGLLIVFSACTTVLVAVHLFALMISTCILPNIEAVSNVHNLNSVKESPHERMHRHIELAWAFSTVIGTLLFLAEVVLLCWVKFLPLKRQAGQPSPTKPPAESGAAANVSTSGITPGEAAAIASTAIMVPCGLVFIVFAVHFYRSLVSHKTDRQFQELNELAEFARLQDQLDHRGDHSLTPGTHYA

| Binder | POC (percent of control, FACS Geo Mean relative to Ch. 1) [%] | POC (percent of control, FACS Geo Mean relative to binding to Ch. 1) [%] |
| --- | --- | --- |
| B1 | < 1 | < 1 |
| B2 | < 1 | – |
| B3 | < 1 | – |

The binders below were run against T3, mOrai1-hOrai1 ECL2 (SPTKPPAE) protein (human/mouse chimera, UniProt Q8BWG9 1-304 (mouse entry)) (assay: FACS, 293EBNA).
T3 construct: also called Ch
T3 sequence (Q8BWG9 other isoform, or with tags, fused parts or gaps): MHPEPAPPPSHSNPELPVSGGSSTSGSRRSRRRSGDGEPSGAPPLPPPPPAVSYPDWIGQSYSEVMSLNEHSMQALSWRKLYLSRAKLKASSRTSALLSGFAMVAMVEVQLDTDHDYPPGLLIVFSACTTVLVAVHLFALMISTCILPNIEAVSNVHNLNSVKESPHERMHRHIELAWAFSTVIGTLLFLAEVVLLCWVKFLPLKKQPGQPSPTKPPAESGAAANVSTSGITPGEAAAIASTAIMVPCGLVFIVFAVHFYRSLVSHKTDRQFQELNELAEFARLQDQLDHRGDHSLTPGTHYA
Design: concentration or dose not given beside the values
From the text: as §1, §2

| Binder | POC (percent of control, FACS Geo Mean relative to Ch. 1) [%] | POC (percent of control, FACS Geo Mean relative to binding to Ch. 1) [%] |
| --- | --- | --- |
| B1 | < 1 | < 1 |
| B2 | < 1 | – |
| B3 | < 1 | – |

Each binder was assayed against T4, mOrai1-hOrai1 ECL2 (KPPAE) protein (human/mouse chimera, UniProt Q8BWG9 1-304 (mouse entry)) (assay: FACS, 293EBNA).
T4 construct: also called Ch
T4 sequence (Q8BWG9 other isoform, or with tags, fused parts or gaps): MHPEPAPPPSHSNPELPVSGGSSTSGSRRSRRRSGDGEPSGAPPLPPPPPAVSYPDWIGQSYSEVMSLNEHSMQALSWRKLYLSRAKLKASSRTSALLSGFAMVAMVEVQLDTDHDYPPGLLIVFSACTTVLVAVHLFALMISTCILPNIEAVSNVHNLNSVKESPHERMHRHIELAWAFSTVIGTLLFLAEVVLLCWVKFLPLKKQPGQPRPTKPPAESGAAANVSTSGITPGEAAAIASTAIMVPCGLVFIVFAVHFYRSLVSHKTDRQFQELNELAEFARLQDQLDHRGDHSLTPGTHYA
Design: concentration or dose not given beside the values
From the text: as §1, §2

| Binder | POC (percent of control, FACS Geo Mean relative to Ch. 1) [%] | POC (percent of control, FACS Geo Mean relative to binding to Ch. 1) [%] |
| --- | --- | --- |
| B1 | < 1 | < 1 |
| B2 | < 1 | – |
| B3 | < 1 | – |

What follows are binders tested against T5, mOrai1-hOrai1 ECL2 (…) protein (human/mouse chimera, UniProt Q8BWG9 1-304 (mouse entry)) (assay: FACS, 293EBNA).
T5 construct: also called Ch
Design: concentration or dose not given beside the values
From the text: as §1, §2
T5 sequence (Q8BWG9 other isoform, or with tags, fused parts or gaps): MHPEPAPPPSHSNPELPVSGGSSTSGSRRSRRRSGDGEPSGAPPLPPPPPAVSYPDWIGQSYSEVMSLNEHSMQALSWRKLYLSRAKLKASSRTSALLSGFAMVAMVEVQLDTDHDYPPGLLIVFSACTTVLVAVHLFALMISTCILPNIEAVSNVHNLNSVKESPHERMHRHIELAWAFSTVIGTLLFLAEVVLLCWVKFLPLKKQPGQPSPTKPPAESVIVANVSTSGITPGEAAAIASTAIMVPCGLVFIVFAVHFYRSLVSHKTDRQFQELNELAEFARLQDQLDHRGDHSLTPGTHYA

| Binder | POC (percent of control, FACS Geo Mean relative to Ch. 1) [%] | POC (percent of control, FACS Geo Mean relative to binding to Ch. 1) [%] |
| --- | --- | --- |
| B1 | < 1 | < 1 |
| B2 | < 1 | – |
| B3 | < 1 | – |

The binders below were run against T6, mOrai1-hOrai1 ECL2 (…) protein (human/mouse chimera, UniProt Q8BWG9 1-304 (mouse entry)) (assay: FACS, 293EBNA).
T6 construct: also called Ch
Design: concentration or dose not given beside the values
From the text: as §1, §2
T6 sequence (Q8BWG9 other isoform, or with tags, fused parts or gaps): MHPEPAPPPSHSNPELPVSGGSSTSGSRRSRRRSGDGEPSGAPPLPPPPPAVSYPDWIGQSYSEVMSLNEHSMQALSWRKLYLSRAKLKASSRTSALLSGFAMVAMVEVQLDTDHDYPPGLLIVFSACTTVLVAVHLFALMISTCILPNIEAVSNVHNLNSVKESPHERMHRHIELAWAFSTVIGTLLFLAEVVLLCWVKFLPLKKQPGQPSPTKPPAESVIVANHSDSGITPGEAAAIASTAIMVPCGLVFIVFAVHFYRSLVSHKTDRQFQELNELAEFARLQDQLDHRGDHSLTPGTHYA

| Binder | POC (percent of control, FACS Geo Mean relative to Ch. 1) [%] | POC (percent of control, FACS Geo Mean relative to binding to Ch. 1) [%] |
| --- | --- | --- |
| B1 | < 1 | < 1 |
| B2 | < 1 | – |
| B3 | < 1 | – |

The binders below were run against T7, mOrai1-hOrai1 ECL2 chimeric protein (human/mouse chimera, UniProt Q8BWG9 1-304 (mouse entry)) (assay: FACS, 293EBNA, RFI-POC grade).
T7 construct: mouse Orai1 with human ECL2; also called Ch
T7 sequence (Q8BWG9 other isoform, or with tags, fused parts or gaps mutant): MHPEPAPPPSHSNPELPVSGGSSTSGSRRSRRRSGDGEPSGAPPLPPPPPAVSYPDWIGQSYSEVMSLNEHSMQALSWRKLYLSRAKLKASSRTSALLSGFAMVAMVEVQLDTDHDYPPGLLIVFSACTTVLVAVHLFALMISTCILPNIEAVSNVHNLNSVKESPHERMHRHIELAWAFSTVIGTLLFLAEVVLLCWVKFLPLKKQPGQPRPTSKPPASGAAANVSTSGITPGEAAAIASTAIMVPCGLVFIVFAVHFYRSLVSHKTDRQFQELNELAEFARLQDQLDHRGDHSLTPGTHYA
Design: concentration or dose not given beside the values
From the text: as §1, §2

| Binder | POC (percent of control, FACS Geo Mean relative to binding to Ch. 1) [%] |
| --- | --- |
| B1 | 40 to 100 |

Each binder was assayed against T8, mOrai1-hOrai1 ECL2 (VIV) protein (human/mouse chimera, UniProt Q8BWG9 1-304 (mouse entry)) (assay: FACS, 293EBNA, RFI-POC grade).
T8 construct: also called Ch
T8 sequence (Q8BWG9 other isoform, or with tags, fused parts or gaps): as the sequence (Q8BWG9 other isoform, or with tags, fused parts or gaps mutant) above, with G221V, A222I, A223V counted along it
Design: concentration or dose not given beside the values
From the text: as §1, §2

| Binder | POC (percent of control, FACS Geo Mean relative to binding to Ch. 1) [%] |
| --- | --- |
| B1 | 40 to 100 |

What follows are binders tested against T9, mOrai1-hOrai1 ECL2 (HSD) protein (human/mouse chimera, UniProt Q8BWG9 1-304 (mouse entry)) (assay: FACS, 293EBNA, RFI-POC grade).
T9 construct: also called Ch
T9 sequence (Q8BWG9 other isoform, or with tags, fused parts or gaps): as the sequence (Q8BWG9 other isoform, or with tags, fused parts or gaps mutant) above, with V226H, T228D counted along it
Design: concentration or dose not given beside the values
From the text: as §1, §2

| Binder | POC (percent of control, FACS Geo Mean relative to binding to Ch. 1) [%] |
| --- | --- |
| B1 | 40 to 100 |

What follows are binders tested against T10, human Orai1 (human, UniProt Q96D31 1-301) (assay: FACS Kd, AM1-CHO/hOrai1/hSTIM1-YFP cells).
T10 construct: on AM1-CHO/hOrai1/hSTIM1-YFP, AM1/hOrai1, HEK-293 transfectants, endogenous on Jurkat and blood cells; in Westerns from cell lysates; also called hOrai1; CRACM1
T10 sequence (Q96D31 whole entry): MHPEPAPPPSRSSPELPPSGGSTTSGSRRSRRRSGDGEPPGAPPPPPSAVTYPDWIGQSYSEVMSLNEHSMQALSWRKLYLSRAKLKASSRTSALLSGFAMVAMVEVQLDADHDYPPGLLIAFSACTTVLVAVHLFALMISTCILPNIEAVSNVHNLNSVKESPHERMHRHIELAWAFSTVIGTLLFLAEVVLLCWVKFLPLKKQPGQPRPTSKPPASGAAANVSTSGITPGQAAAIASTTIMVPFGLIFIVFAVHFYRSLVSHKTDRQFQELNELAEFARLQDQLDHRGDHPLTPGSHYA
Protocol: The equilibrium plates were centrifuged at 500 g for 3 minutes and cell pellets were washed twice with 200 μL of ice cold FACS buffer (1×D-PBS+2% FBS). The cells were then incubated with a secondary antibody, goat anti-human Fc Cy5 at 5 μg/mL and 100 μL per well for 1 h on ice in the dark. Following the incubation, the cells were washed twice with 200 μL of ice-cold FACS buffer before flow cytometry analysis. The GeoMean values gated on live cell population measure the bound [Ab]. The inverse of the GeoMean values that reflects theoretical free [Ag] in the equilibrium solution was then calculated. The inverse values of the GeoMean read were used in KinExA® Pro software for analysis and Kd calculation for each antibody. The free [Ag] measure was plotted against the starting concentration of titrating component and from these plots at two different cell concentrations the Kd was obtained from curve fitting using n-curve analysis in KinExA Pro software. […] Shown in Table 14 (below) are the equilibrium dissociation constant (Kd) values of invented mAbs determined by FACS Kd measurement.

| Binder | Kd [nM] |
| --- | --- |
| B1 | 0.0098 |
| B2 | 0.133 |
| B3 | 0.52 |

The binders below were run against T2, mOrai1-hOrai1 ECL2 (…) protein (assay: flow cytometry on HEK-293 cells transfected with the chimera (loss of binding experiment)).

| Binder | binding result |
| --- | --- |
| B1 | no binding |
| B2 | no binding |
| B3 | no binding |

Each binder was assayed against T3, mOrai1-hOrai1 ECL2 (SPTKPPAE) protein in the same assay as above.

| Binder | binding result |
| --- | --- |
| B1 | no binding |
| B2 | no binding |
| B3 | no binding |

The binders below were run against T4, mOrai1-hOrai1 ECL2 (KPPAE) protein in the same assay as above.

| Binder | binding result |
| --- | --- |
| B1 | no binding |
| B2 | no binding |
| B3 | no binding |

The binders below were run against T5, mOrai1-hOrai1 ECL2 (…) protein in the same assay as above.

| Binder | binding result |
| --- | --- |
| B1 | no binding |
| B2 | no binding |
| B3 | no binding |

Each binder was assayed against T6, mOrai1-hOrai1 ECL2 (…) protein in the same assay as above.

| Binder | binding result |
| --- | --- |
| B1 | no binding |
| B2 | no binding |
| B3 | no binding |
